Assay in all cases: cell-based or functional assay
In test [1] the target is T1, HIV-1 JR-FL envelope glycoprotein (Env) (HIV-1 strain JR-FL).
Test [2] has as its target HIV-1 AD8 envelope glycoprotein (Env) (HIV-1 strain AD8).
The target of test [3] is HIV-1 IIIB envelope glycoprotein (Env) (HIV-1 strain IIIB).
Test [4] addresses T1, HIV-1 JR-FL envelope glycoprotein (Env). This is another data set of the same source.
Test [5] addresses HIV-1 AD8 envelope glycoprotein (Env) (HIV-1 strain AD8). The source holds these as a separate data set.
In test [6] the target is HIV-1 IIIB envelope glycoprotein (Env) (HIV-1 strain IIIB). This is another data set of the same source.

B1: scFv m9 (scFv)
scFv: VLTQSPGTLSLSAGERATLSCRASQSVSSGSLAWYQQKPGQAPRLLIYGASTRATGIPDRFSGSGSGTDFTLTIGRLEPEDLAVYYCQQYGTSPYTFGQGTKLEIKRTGGGGSGGGGSGGGGSVQLLEQSGAEVKKPGSSVQVSCKAFGGTFSMYGFNWVRQAPGHGLEWMGGIIPIFGTTNYAQKFRGRVTFTADQATSTAYMELTNLRSDDTAVYYCARDFGPDWEGGDSYDGSGRGFFDFWGQGTLVNVSS
For B1, the “percentage of maximal infection, U87.CD4.CCR5.CXCR4 cells, 100 µg/mL antibody” value in test [1] stood at 20%; in test [2], 6.1%; in test [3], 12%. In addition, the figures for the “Neutralizing activity (percentage) at 100 µg/mL” value in test [4], in test [5] and in test [6] were 90%, 100% and 100%, respectively.

The record behind these values is patent US20070212363A1 (US Dept. of Health and Human Services, published 2007).
